Reference: the supplement of paper PMC10266784

B1: library; numbered along this chain (parent)
chain: MAAAAAAAAEQQSSNGPVKKSMREKAVERRSVNKEHNSNFKAGYIPIDEDRLHKTGLRGRKGNLAICVIILLFILAVINLIITLVIWAVIRIGPNGCDSMEFHESGLLRFKQVSDMGVIHPLYKSTVGGRRNENLVITGNNQPIVFQQGTTKLSVENNKTSITSDIGMQFFDPRTQNILFSTDYETHEFHLPSGVKSLNVQKASTERITSNATSDLNIKVDGRAIVRGNEGVFIMGKTIEFHMGGNMELKAENSIILNGSVMVSTTRLPSSSSGDQLGSGDWVRYKLCMCADGTLFKVQVTSQNMGCQISDNPCGNTH

Variants of: B1
Test: SGCB cell-surface expression functional score (HA stain, bin4 vs bin1, normalised to synonymous) (log10 ratio); higher = more cell-surface SGCB (functional)
Procedure, shortened: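 Sorting and sequencing yield the functional score, defined as the log ratio of a variant's highest-bin frequency to its lowest-bin frequency, with the median taken over codons and replicate transductions. The libraries, codon-saturation sets of HA-tagged, YFP-fused human beta-sarcoglycan, went into HEK293 cells stably carrying alpha-, gamma- and delta-sarcoglycan by duplicate lentiviral transduction at MOI <0.1. Cells were stained on ice with Alexa Fluor 647 anti-HA, fixed and split into four 5% intensity bins, and synonymous variants were scaled per section to mean 0, SD 0.5.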

SGCB cell-surface expression functional score (log10): each site, then its substitutions
M243: H 0.52; A 0.83; T 0.83; G 0.64; V 0.49; S 0.81; C 0.71; D -0.38; F 1.18; R -0.97; I 0.18; L 0.43; Y 0.13; E 0.01; P 0.21; N 1.08; W -0.253; Q 0.88; K -0.64
T238: R 0.94; V 0.95; D 0.72; A 0.6; W -0.07; I 0.62; Y -0.01; K 0.3; S 0.64; Q 0.63; M 0.93; L 0.67; G 0.71; P -0.64; N 0.67; F 0.86; C 0.64; E 0.87; H 0.24
G245: Y 1.09; I 0.57; F -0.16; E 1.16; D 0.77; C 0.61; Q 0.99; P 0.4; S 0.78; K 0.91; M 1.44; A 0.6; L 0.83; H 0.52; R 0.49; T 0.57; W 0.92; V -0.07; N 0.59
G244: A 0.67; K 0.23; F 1; M 1.17; I -0.24; N 0.77; T 0.66; Q 0.86; L 0.86; C 0.21; P 0.1; S 0.77; R 0.41; W 0.55; D 0.99; V 0.12; H 0.75; Y -0.22; E 0.47
F233: L 0.47; V 0.18; G -0.1; T 0.7; D -0.146; Y 0.56; W 0.09; P -1.53; M 1.15; R 0.69; A 0.97; Q 0.77; H 0.36; S 0.62; C -0.13; N 0.87; K 0.34; I 0.99; E 0.63
G228: V -1.04; T -0.37; Y -2.12; W -1.51; S 0.43
G231: A -0.01; M -1.23; E 0.17; Q -0.92; S -0.88; P -1.37; D -0.08; V -1.02; T -0.29; L -0.37; R 0.27; Y 0.68; I -1.29; C -0.5; N -0.19; W -1.9; K -1.12; H -0.09; F -0.12
N246: E -0.206; G 0.45; A 0.82; C -0.02; D 0.51; F -1.49
V232: N -1.99; I 0.47; H 0.69; Q -1.69; W -1.85; M 0.68; G -0.27; E -1.63; L 0.35; P -0.64; K -1.43; A -0.53; F 0.02; T 0; Y -1.09; R -1.12; D -1.72; C 0.7; S -0.67
E240: H 0.77; P -0.9; V 0.99; M 1.09; C 0.37; Q 1; W 0.422; N 0.97; S 0.98; T 1; D 0.58; R 0.44; A 0.93; G 0.76; Y 0.83; F 0.84; K 0.46; L 0.37; I 0.23
K237: F 0.86; D 0.73; E 0.47; I 0.24; Q -0.79; Y 0.48; T 0.58; G 0.05; V 0.29; W 0.453; S 0.2; L 0.6; R 0.73; H -0.04; P 0.32; A 0.85; M 0.8; C 0.61; N 0.32
M235: S 0.53; G 0.75; R 0.56; L 0.66; A 0.36; Q 0.65; I 0.26; V 0.18; W 0.91; N 1.02; K 0.78; C 0.86; P -0.94; F 0.84; T 0.37; Y 0.92; D -0.066; E 0; H 0.69
N229: A 0.8; S 0.94; T 0.29; R 0.82; M 1.28; H 1.03; V 0.87; I 0.92; C 0.72; E 0.51; W 0; D 0.08; Y -0.25; L 0.33; P 0.68; K 0.95; F 1.19; G 0.8; Q 0.93
I239: K -1.38; R -1.04; M 0.83; V 0.12; D -1.13; N -1.44; H -0.15; W -0.02; G -0.41; Y -1.52; S -1.1; T 0.15; A 0.09; C 0.46; P -1.08; Q -1.16; L 0.49; E 0; F -0.45
H242: R 0.39; I 0.92; N 0.39; Q 0.68; L 0.7; T 0.66; W 0.6; D 0.83; M 0.2; E 0.36; S 0.93; K 1.04; V 0.71; A 0.4; G 0.87; Y 0.47; C 1; P -0.67; F 0.89
F241: N -0.57; A 0.14; R -1.19; Y -0.82; C 0.62; W 1.2; G -0.98; E 0.03; D -0.57; K -1.17; H -2.08; M 0.82; P -0.89; T -0.91; L 0.35; S -1.23; I 0.2; Q -1.74; V -0.37
I234: V 0.49; T 0.09; E -1.49; S -0.92; K -1.32; M 0.48; W 0.32; A -0.02; G -1; F 1.03; R -1.51; H -1.04; Q -1.65; P -0.22; N -1.67; L 0.43; D -0.5; Y -0.62; C 0.01
E230: P -0.01; I 0.14; T 1.29; N 0.82; V 0.49; D 0.26; F 1.05; Q 0.32; S 0.75; M 0.53; G 0.43; R 0.28; K 0.42; H 0.9; L 0.63; C 1.05; W 0.47; Y 0.86; A 0.38
G236: P -1.06; T -0.62; D -0.43; F -1.96; E -1.08; W -2.11; A 0.11; V -1.25; I -1.64; N -1.82; Q 0.48; R -1.3; Y -1.44; C -1.64; H -1.67; L -1.75; M -2.18; S -0.08; K -2
